Square brackets hold non-standard residues; d marks the D form. Ends that are not written are not given here. dTrp(2-Me) = Cc1[nH]c2ccccc2c1C[C@@H](N)C(=O)O; HAIC = not defined here
Molecular target: CD36 receptor (in the src-kinase cellular assay)
Assay: cell-based or functional assay

SRC-kinase cellular assay EC50: 26 nM
Binder: [HAIC][dTrp(2-Me)][dK]W[dF]K-NH2 (reading uncertain) [EP80317]
